Paper PMC12319226 (Frontiers in Bioinformatics, 2025)

T1: fHbp mutant 0014 (Neisseria meningitidis, fHbp v1.1 mutant, point mutant)
T1 chain: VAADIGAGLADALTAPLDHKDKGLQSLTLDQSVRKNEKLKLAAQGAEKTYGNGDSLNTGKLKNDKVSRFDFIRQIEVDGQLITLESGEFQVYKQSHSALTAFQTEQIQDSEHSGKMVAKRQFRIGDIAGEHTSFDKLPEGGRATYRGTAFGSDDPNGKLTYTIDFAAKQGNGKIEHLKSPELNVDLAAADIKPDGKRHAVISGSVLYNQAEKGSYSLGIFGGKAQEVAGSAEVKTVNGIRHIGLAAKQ

T2: fHbp mutant 0021 (Neisseria meningitidis, fHbp v3.28 …, point mutant)
T2 chain: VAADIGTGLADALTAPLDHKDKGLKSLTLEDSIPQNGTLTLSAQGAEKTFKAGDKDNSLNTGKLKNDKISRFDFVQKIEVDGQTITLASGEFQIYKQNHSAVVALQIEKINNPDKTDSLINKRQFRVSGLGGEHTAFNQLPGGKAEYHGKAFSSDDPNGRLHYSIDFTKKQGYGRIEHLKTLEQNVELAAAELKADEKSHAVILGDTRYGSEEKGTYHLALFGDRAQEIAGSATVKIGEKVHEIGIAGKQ

T3: fHbp mutant 0017 (Neisseria meningitidis, fHbp v1.1 mutant, point mutant)
T3 chain: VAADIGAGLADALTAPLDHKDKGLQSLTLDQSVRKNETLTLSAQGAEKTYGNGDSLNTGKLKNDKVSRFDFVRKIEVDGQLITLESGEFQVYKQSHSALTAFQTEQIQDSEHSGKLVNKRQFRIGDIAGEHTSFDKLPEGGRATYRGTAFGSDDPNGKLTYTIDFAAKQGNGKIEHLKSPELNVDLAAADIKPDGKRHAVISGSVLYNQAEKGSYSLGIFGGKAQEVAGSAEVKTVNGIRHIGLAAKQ

T4: fHbp mutant 0015 (Neisseria meningitidis, fHbp v1.1 mutant, point mutant)
T4 chain: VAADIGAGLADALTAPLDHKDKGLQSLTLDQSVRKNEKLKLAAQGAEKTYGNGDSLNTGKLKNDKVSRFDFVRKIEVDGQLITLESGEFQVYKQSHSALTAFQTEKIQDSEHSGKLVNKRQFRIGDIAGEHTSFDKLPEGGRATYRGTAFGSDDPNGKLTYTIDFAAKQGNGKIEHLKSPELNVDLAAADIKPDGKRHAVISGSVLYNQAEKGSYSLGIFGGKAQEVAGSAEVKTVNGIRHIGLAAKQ

T5: fHbp m000019 (Neisseria meningitidis, fHbp v1.1 …, point mutant)
T5 chain: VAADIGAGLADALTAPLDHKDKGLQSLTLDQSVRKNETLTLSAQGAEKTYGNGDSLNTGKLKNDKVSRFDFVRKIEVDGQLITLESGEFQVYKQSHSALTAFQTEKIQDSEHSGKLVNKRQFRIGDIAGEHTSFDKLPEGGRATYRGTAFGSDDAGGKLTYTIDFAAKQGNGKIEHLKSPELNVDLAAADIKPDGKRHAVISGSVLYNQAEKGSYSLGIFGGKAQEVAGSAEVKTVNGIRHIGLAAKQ

T6: fHbp mutant 0018 (Neisseria meningitidis, fHbp v1.1 mutant, point mutant)
T6 chain: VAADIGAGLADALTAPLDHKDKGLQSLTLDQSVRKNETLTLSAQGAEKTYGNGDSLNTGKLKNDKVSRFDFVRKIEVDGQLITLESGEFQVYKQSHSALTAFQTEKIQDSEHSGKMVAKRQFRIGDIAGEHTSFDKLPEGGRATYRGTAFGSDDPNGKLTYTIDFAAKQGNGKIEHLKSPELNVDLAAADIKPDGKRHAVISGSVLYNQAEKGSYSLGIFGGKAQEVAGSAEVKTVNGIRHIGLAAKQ

T7: fHbp mutant 0016 (Neisseria meningitidis, fHbp v1.1 mutant, point mutant)
T7 chain: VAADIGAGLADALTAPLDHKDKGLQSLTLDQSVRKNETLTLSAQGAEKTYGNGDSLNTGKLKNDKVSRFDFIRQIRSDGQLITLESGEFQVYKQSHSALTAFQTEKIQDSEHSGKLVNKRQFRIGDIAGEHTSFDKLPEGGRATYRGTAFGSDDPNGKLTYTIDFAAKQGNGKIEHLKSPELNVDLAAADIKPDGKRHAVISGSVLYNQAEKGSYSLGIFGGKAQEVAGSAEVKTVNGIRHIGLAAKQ

T8: fHbp mutant 0022 (Neisseria meningitidis, fHbp v3.28 …, point mutant)
T8 chain: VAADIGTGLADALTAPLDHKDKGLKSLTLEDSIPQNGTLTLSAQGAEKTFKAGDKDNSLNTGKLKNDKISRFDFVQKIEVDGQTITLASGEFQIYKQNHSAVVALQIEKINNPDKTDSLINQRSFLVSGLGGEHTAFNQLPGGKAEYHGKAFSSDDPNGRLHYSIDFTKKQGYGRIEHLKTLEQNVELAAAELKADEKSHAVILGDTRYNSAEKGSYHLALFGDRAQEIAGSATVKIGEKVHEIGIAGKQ


Assays:
Assay in all cases: BLI
Details in all cases: both partners purified
fHbp mutant 0014 = target: T1, fHbp mutant 0014
[1] = target: T9, factor H binding protein variant 1.1 (Neisseria meningitidis serogroup B …, UniProt Q9JXV4)
T9 construct: also called fHbp v1.1; v1.1 Control (0001)

fHbp mutant 0021 = target: T2, fHbp mutant 0021
fHbp mutant 0017 = target: T3, fHbp mutant 0017
fHbp mutant 0015 = target: T4, fHbp mutant 0015
fHbp m000019 = target: T5, fHbp m000019
fHbp mutant 0018 = target: T6, fHbp mutant 0018
fHbp mutant 0016 = target: T7, fHbp mutant 0016
fHbp mutant 0022 = target: T8, fHbp mutant 0022

Binder	Kd (fHbp mutant 0014)	koff (fHbp mutant 0014)	kon (fHbp mutant 0014)	Kd [1]	koff [1]	kon [1]	Kd (fHbp mutant 0021)	koff (fHbp mutant 0021)	kon (fHbp mutant 0021)	Kd (fHbp mutant 0017)	koff (fHbp mutant 0017)	kon (fHbp mutant 0017)	Kd (fHbp mutant 0015)	koff (fHbp mutant 0015)	kon (fHbp mutant 0015)	Kd (fHbp m000019)	koff (fHbp m000019)	kon (fHbp m000019)	Kd (fHbp mutant 0018)	koff (fHbp mutant 0018)	other results
mAb 1E6 (human) (antibody, V domains shown, source: Expi293, purified (MabSelect SuRe, SEC); copies: 2 + 2) VH: EVQLVQSGAEVKKPGSSVKVSCKASGGTVIDYPITWVRQAPGQGLEWVGGFVPLFRTSNYGQKFQGRVTITADKSTSTASMELNSLTSEDTAIYYCARGDTAMGPFDYWGQGTLVTVSS VL: SYVLTQPPSLSVAPGKTATLTCGGNNIAGKTVHWYQQRPGQAPVLVISYDSDRPSGIPERFSGSNSANTATLTISRVEAGDEADYYCQVWDRNSDHWVFGGGTKLTVL	2.11 nM	0.00204 s⁻¹	964100 ± 5740 M⁻¹ s⁻¹	3.4 nM	0.00447 s⁻¹	1.32e+06 ± 14800 M⁻¹ s⁻¹	0.654 nM	0.000333 s⁻¹	508900 ± 2640 M⁻¹ s⁻¹	4.23 nM	0.00199 s⁻¹	471400 ± 4100 M⁻¹ s⁻¹	1.42 nM	0.000862 s⁻¹	609000 ± 6530 M⁻¹ s⁻¹	2.19 nM	0.00153 s⁻¹	698800 ± 3080 M⁻¹ s⁻¹	1.04 nM	0.000558 s⁻¹	kon (fHbp mutant 0018): 538300 ± 3080 M⁻¹ s⁻¹; Kd (fHbp mutant 0016): 0.69 nM; koff (fHbp mutant 0016): 0.000223 s⁻¹; kon (fHbp mutant 0016): 323000 ± 3620 M⁻¹ s⁻¹; Kd (fHbp mutant 0022): 0.601 nM; koff (fHbp mutant 0022): 0.0003 s⁻¹; kon (fHbp mutant 0022): 498300 ± 1660 M⁻¹ s⁻¹
mAb 4B3 (human) (antibody, V domains shown, also called 4B3-2; source: Expi293, purified (MabSelect SuRe, SEC); copies: 2 + 2) VH: QVQLVQSGGGLVKPGGSLRLSCAASGFPFSSYYMSWIRQAPGKGLEWVSDINNSGNVKEYADFVKGRLTISRDNVKNSMYLHMNSLRVEDTAVYYCARNRGRFDVWGQGTLVTVSA VL: EIVMTQSPGTLSLSPGETATLSCRASQMISSPFLAWYQQRRGQAPRLLIYGASTRATDTPDRFRGSGSGTDFILTISRLEPEDFAVYYCQYYDDSPFTFGQGTKLEIK	1.57 nM	0.00116 s⁻¹	736500 ± 3130 M⁻¹ s⁻¹	1.33 nM	0.00103 s⁻¹	767900 ± 4960 M⁻¹ s⁻¹	1.82 nM	0.00084 s⁻¹	460100 ± 2250 M⁻¹ s⁻¹	2.98 nM	0.000964 s⁻¹	324100 ± 1980 M⁻¹ s⁻¹	3.57 nM	0.00129 s⁻¹	360000 ± 5970 M⁻¹ s⁻¹	5.53 nM	0.00124 s⁻¹	224400 ± 1040 M⁻¹ s⁻¹	2.36 nM	0.00101 s⁻¹	kon (fHbp mutant 0018): 426800 ± 2190 M⁻¹ s⁻¹; Kd (fHbp mutant 0016): 4.74 nM; koff (fHbp mutant 0016): 0.00131 s⁻¹; kon (fHbp mutant 0016): 276800 ± 1380 M⁻¹ s⁻¹; Kd (fHbp mutant 0022): 1.77 nM; koff (fHbp mutant 0022): 0.000836 s⁻¹; kon (fHbp mutant 0022): 473200 ± 1420 M⁻¹ s⁻¹
